In patent publication US20230002480A1:

Experiments:
Assay in all cases: cell-based or functional assay
[1] = target: HIV-1 Env of pseudovirus 3103.v3.c10 (HIV-1)
[2] = target: HIV-1 Env of pseudovirus 1012_11_TC21_3257 (HIV-1)
[3] = target: HIV-1 Env of pseudovirus HIV-16845-2.22 (HIV-1)
[4] = target: HIV-1 Env of pseudovirus 3016.v5.c45 (HIV-1)
[5] = target: HIV-1 Env of pseudovirus R3265.c06 (HIV-1)
[6] = target: HIV-1 Env of pseudovirus T255-34 (HIV-1)
[7] = target: HIV-1 Env of pseudovirus CNE21 (HIV-1)
[8] = target: HIV-1 Env of pseudovirus ZM214M.PL15 (HIV-1)
[9] = target: HIV-1 Env of pseudovirus 6041.v3.c23 (HIV-1)
[10] = target: HIV-1 Env of pseudovirus X1632_S2_B10 (HIV-1)
[11] = target: HIV-1 Env of pseudovirus HIV-001428-2.42 (HIV-1)
[12] = target: HIV-1 Env of pseudovirus 211-9 (HIV-1)
[13] = target: HIV-1 Env of pseudovirus CNE30 (HIV-1)
[14] = target: HIV-1 Env of pseudovirus QH0692.42 (HIV-1)
[15] = target: HIV-1 Env of pseudovirus Ce2060_G9 (HIV-1)
[16] = target: HIV-1 Env of pseudovirus 620345.c01 (HIV-1)
[17] = target: HIV-1 Env of pseudovirus 89-F1_2_25 (HIV-1)
[18] = target: HIV-1 Env of pseudovirus 1006_11_C3_1601 (HIV-1)
[19] = target: HIV-1 Env of pseudovirus 1394C9G1(Rev-) (HIV-1)
[20] = target: HIV-1 Env of pseudovirus CNE8 (HIV-1)
[21] = target: HIV-1 Env of pseudovirus 7030102001E5(Rev-) (HIV-1)
[22] = target: HIV-1 Env of pseudovirus TRO.11 (HIV-1)
[23] = target: HIV-1 Env of pseudovirus Du422.1 (HIV-1)
[24] = target: HIV-1 Env of pseudovirus REJO4541.67 (HIV-1)
[25] = target: HIV-1 Env of pseudovirus T257-31 (HIV-1)
[26] = target: HIV-1 Env of pseudovirus X1193_c1 (HIV-1)
[27] = target: HIV-1 Env of pseudovirus THRO4156.18 (HIV-1)
[28] = target: HIV-1 Env of pseudovirus 6244_13_B5_4576 (HIV-1)
[29] = target: HIV-1 Env of pseudovirus 6540.v4.c1 (HIV-1)
[30] = target: HIV-1 Env of pseudovirus SC05_8C11_2344 (HIV-1)
[31] = target: HIV-1 Env of pseudovirus BJOX028000.10.3 (HIV-1)
[32] = target: HIV-1 Env of pseudovirus A07412M1.vrc12 (HIV-1)
[33] = target: HIV-1 Env of pseudovirus R1166.c01 (HIV-1)
[34] = target: HIV-1 Env of pseudovirus Q842.d12 (HIV-1)
[35] = target: HIV-1 Env of pseudovirus Du172.17 (HIV-1)
[36] = target: HIV-1 Env of pseudovirus CNE17 (HIV-1)

N49P6 (antibody)
IC50 [1]: 0.582 µg/mL | IC80 [1]: 1.57 µg/mL | MPI [1]: 100 | IC50 [2]: 0.137 µg/mL | IC80 [2]: 0.502 µg/mL | MPI [2]: 100 | IC50 [3]: 0.692 µg/mL | IC80 [3]: 3.75 µg/mL | MPI [3]: 100 | IC50 [4]: 21.7 µg/mL | IC80 [4]: > 50 µg/mL | MPI [4]: 72 | IC50 [5]: 0.101 µg/mL | IC80 [5]: 0.443 µg/mL | MPI [5]: 100 | IC50 [6]: 0.076 µg/mL | IC80 [6]: 0.392 µg/mL | MPI [6]: 100 | IC50 [7]: 0.832 µg/mL | IC80 [7]: 6.52 µg/mL | MPI [7]: 99 | IC50 [8]: 0.51 µg/mL | IC80 [8]: 1.8 µg/mL | MPI [8]: 100 | IC50 [9]: 5.53 µg/mL | IC80 [9]: 43.2 µg/mL | MPI [9]: 88 | IC50 [10]: 23.1 µg/mL | IC80 [10]: > 50 µg/mL | MPI [10]: 69 | IC50 [11]: 0.016 µg/mL | IC80 [11]: 0.05 µg/mL | MPI [11]: 100 | IC50 [12]: 8.49 µg/mL | IC80 [12]: 27.7 µg/mL | MPI [12]: 93 | IC50 [13]: 0.457 µg/mL | IC80 [13]: 1.54 µg/mL | MPI [13]: 100 | IC50 [14]: 0.652 µg/mL | IC80 [14]: 2.28 µg/mL | MPI [14]: 100 | IC50 [15]: 0.888 µg/mL | IC80 [15]: 4.81 µg/mL | MPI [15]: 100 | IC50 [16]: 22.9 µg/mL | IC80 [16]: > 50 µg/mL | MPI [16]: 70 | IC50 [17]: 33.6 µg/mL | IC80 [17]: > 50 µg/mL | MPI [17]: 61 | IC50 [18]: 0.068 µg/mL | IC80 [18]: 0.209 µg/mL | MPI [18]: 100 | IC50 [19]: 17.5 µg/mL | IC80 [19]: > 50 µg/mL | MPI [19]: 80 | IC50 [20]: 0.072 µg/mL | IC80 [20]: 0.245 µg/mL | MPI [20]: 100 | IC50 [21]: 0.354 µg/mL | IC80 [21]: 1.17 µg/mL | MPI [21]: 100 | IC50 [22]: 0.061 µg/mL | IC80 [22]: 0.19 µg/mL | MPI [22]: 100 | IC50 [23]: 44 µg/mL | IC80 [23]: > 50 µg/mL | MPI [23]: 57 | IC50 [24]: 0.066 µg/mL | IC80 [24]: 0.215 µg/mL | MPI [24]: 100 | IC50 [25]: 0.147 µg/mL | IC80 [25]: 0.535 µg/mL | MPI [25]: 100 | IC50 [26]: 0.074 µg/mL | IC80 [26]: 0.224 µg/mL | MPI [26]: 100 | IC50 [27]: 12.5 µg/mL | IC80 [27]: 38.4 µg/mL | MPI [27]: 89 | IC50 [28]: 0.095 µg/mL | IC80 [28]: 0.328 µg/mL | MPI [28]: 100 | IC50 [29]: 14 µg/mL | IC80 [29]: 47.5 µg/mL | MPI [29]: 81 | IC50 [30]: 0.266 µg/mL | IC80 [30]: 0.911 µg/mL | MPI [30]: 100 | IC50 [31]: 6.68 µg/mL | IC80 [31]: > 50 µg/mL | MPI [31]: 77 | IC50 [32]: 0.229 µg/mL | IC80 [32]: 0.786 µg/mL | MPI [32]: 100 | IC50 [33]: 0.102 µg/mL | IC80 [33]: 0.344 µg/mL | MPI [33]: 100 | IC50 [34]: 0.034 µg/mL | IC80 [34]: 0.091 µg/mL | MPI [34]: 100 | IC50 [35]: 20.8 µg/mL | IC80 [35]: > 50 µg/mL | MPI [35]: 74 | IC50 [36]: 0.34 µg/mL | IC80 [36]: 2.1 µg/mL | MPI [36]: 100
